Target: MBP-DHX15-His10 (human, UniProt O43143 1-795)
Experiment: pull-down

MBP-DHX15-His10, sequence (O43143 whole entry): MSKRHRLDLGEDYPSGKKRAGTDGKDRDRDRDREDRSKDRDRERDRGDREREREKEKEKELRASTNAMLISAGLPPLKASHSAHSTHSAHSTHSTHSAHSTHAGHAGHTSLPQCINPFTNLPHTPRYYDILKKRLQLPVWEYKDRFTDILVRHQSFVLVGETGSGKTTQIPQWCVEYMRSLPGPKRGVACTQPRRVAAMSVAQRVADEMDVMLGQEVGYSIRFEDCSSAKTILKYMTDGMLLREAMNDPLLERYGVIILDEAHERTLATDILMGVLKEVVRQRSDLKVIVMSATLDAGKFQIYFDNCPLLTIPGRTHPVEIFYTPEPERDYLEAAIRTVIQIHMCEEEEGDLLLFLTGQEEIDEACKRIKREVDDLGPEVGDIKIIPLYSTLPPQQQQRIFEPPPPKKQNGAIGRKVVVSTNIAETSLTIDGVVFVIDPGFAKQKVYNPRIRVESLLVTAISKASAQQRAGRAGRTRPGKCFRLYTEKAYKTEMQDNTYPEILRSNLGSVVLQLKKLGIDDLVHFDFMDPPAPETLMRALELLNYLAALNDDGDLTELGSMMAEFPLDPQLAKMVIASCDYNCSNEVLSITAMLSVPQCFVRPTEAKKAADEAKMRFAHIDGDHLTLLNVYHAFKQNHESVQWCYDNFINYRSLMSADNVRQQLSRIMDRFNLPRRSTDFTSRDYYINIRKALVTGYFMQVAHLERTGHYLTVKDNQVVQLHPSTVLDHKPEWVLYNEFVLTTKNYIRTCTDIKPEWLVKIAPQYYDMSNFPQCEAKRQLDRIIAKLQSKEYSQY

binding result: binds
Binder: GMKFAEEQLLKHGWTQGKGLGRKENGITQALRVTLKQDTHGVGHDPA (domain or fragment) [ZZ-GPATCH4GP-His7 (G-patch domain of GPATCH4, amino acids 11 to 57)]

Reference: article PMC10939407 (Nucleic Acids Research, 2023)
